# Residue numbers refer to the chain shown, from its start.
# B1: PA2R3-P1F1 (chimeric) (antibody, V domains shown)
# VH: EVQLQQSGAELMKPGASVKISCKATGYTFSSYWIEWVKQRPGHGLEWIGEILPGSGSTNYNEKFKGKATFTADTSSNTAYMQLSSLTSEDSAVYYCARGAWLLSYWYFDVWGAGTSVTVSS
# VL: DIQMMQSTSSLSASLGDRVTISCSASQGISNYLNWYQQKPDGTVKLLIYYTSSLHSGVPSRFSGSGSGTQFSLKINSLQPEDFGSYYCQHHYGTPYTFGGGTKLELKR
# B2: PA2LR3-P1G6 (chimeric) (antibody, V domains shown)
# VH: EVQLQQSGAELVRPGSSVKISCKASGYAFSYYWMNWVKQRPGQGLEWIGQIYPGDGDTNYNGKFKGKATLTVDKSSSTAYMQLSSLTSEDSAVYFCARSHGNYFAYWGQGTLVTVSA
# VL: DIVLSQSPAIMSASLGERVTMTCTASSSVSSSYLHWYQQKPGSSPKLWIYSTSNLASGVPARFSGSGSGTSYSLTISRMEAEDAATYYCQQWSSYPLTFGAGTKLELKR
# B3: PA2LR3-P2E5 (chimeric) (antibody, V domains shown)
# VH: B2 VH with S30R, Y31D, D57A, N61I, V72A, A105P, Q109H
# VL: B2 VL with D1Q, S5T, R78S
# B4: PA2LR3-P4G10 (chimeric) (antibody, V domains shown)
# VH: B2 VH with S7F, V72A
# VL: B2 VL with S5T, R78S, Y95N
# B5: PA2LR3-P4B1 (chimeric) (antibody, human IgG1, kappa, V domains shown)
# VH: B2 VH with Y27F, Y31N, Y60F, K67R, T69I, V72A, K74I, S77N, A105P
# VL: B2 VL with D1Q, S5T, R78S, Q90H, W92Y, S93H, S94R, Y95S
# B6: PA2LR3-P4C6 (chimeric) (antibody, V domains shown)
# VH: B2 VH with V72A, A105P
# VL: B2 VL with L4I, S5T, M11V, R78S, L107I
# B7: PA2LR3-P2D3 (chimeric) (antibody, human IgG1, kappa, V domains shown)
# VH: B2 VH with V72A, N102S
# VL: DIELAQSPASLAVSLGQRATISCRASESVDSYGNSFMHWYQQKPGQPPKLLIYLASNLESGVPARFSGSGSRADFTLTIDPVEADDAATYYCLQYASSPPTFGAGTKLEIKR
# B8: PA2LR3-P3B10 (chimeric) (antibody, V domains shown)
# VH: B2 VH with V72A, A105P
# VL: B2 VL with L4I, S5T, M11V, R78S, L107I
# B9: PA2LR3-P2B8 (chimeric) (antibody, V domains shown)
# VH: B2 VH with V72A
# VL: B2 VL with L4M, S5T, V29I, R78S, Q90H, W92Y, S93H, S94R, Y95S, T98A
# B10: PA2LR3-P1H4 (chimeric) (antibody, V domains shown)
# VH: B2 VH with A28V, S30G, Y31N, V72A, A105P
# VL: B2 VL with D1Q, S5T, R78S
# B11: PA2LR3-P3B8 (chimeric) (antibody, V domains shown)
# VH: B2 VH with Y27F, Y31N, Y60F, K67R, T69I, V72A, K74I, S77N, A105P
# VL: B2 VL with L4M, S5T, S51G, A61V, R78S
# Target: A139 iCAPS (purified human CB1 with ICL3 native sequence replaced with BRIL, in lipid bilayer) (human) (UniProt P21554)
# Sequence (P21554 whole entry): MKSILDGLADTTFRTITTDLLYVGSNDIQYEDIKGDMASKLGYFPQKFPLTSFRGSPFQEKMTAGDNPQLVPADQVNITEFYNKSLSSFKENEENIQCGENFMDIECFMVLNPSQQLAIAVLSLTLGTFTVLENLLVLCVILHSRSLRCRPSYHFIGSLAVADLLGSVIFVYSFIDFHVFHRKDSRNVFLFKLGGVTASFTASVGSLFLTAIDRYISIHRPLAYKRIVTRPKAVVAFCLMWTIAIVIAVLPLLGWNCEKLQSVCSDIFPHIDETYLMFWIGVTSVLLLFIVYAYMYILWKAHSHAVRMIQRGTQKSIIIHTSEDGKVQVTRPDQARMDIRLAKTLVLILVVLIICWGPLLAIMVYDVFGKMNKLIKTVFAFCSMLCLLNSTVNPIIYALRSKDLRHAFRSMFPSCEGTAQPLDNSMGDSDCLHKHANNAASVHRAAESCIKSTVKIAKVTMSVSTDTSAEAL
# Assay: ELISA, purified IgG on CB1 iCAPS
row,Binder,EC50
1,B1,1.1 nM
2,B2,35 nM
3,B3,3.2 nM
4,B4,1.35 nM
5,B5,1.41 nM
6,B6,0.4 nM
7,B7,2.6 nM
8,B8,0.78 nM
9,B9,1.8 nM
10,B10,33.5 nM

# Target: A138 iCAPS (purified human CB1 with ICL3 native sequence replaced with protein 1 sequence, in lipid bilayer) (human) (UniProt P21554)
# Sequence (P21554 whole entry): as above
# Assay: ELISA, purified IgG on CB1 iCAPS
row,Binder,EC50
1,B1,1.3 nM
2,B2,81 nM
3,B3,10 nM
4,B4,1.19 nM
5,B5,1.28 nM
6,B11,71 nM
7,B6,0.4 nM
8,B7,4.9 nM
9,B8,1.4 nM
10,B9,6.7 nM
11,B10,21 nM

# From patent publication US20230348589A1
